Read-outs that look alike come from different tables or passages of the source.
Tests used:
[1] = biological target: T1, human IGF2^1-67 (mature insulin-like growth factor 2) (human, UniProt P01344 25-91, biotinylated (site not stated) where immobilised on the chip (Tables 1-4)); experiment: SPR steady state, biotin-IGF2 on chip, pH 7.4
T1 construct: mature; also called mature IGF2; biotinylated IGF2
Description: (§1) Final kinetic analysis of mutants by SPR was conducted using a Biacore T200 biosensor at 25° C. in either HBS-EP (10 mM HEPES pH 7.4, 150 mM NaCl, 3 mM EDTA, and 0.005% (v/v) surfactant P20) or MES-EP (20 mM MES pH 6.5, 150 mM NaCl, 3 mM EDTA, and 0.005% (v/v) surfactant P20) at a flow-rate of 40 μL min⁻¹. […] For the analysis of the Fc-domain 11^AB5 interaction, approximately 50 RU of a biotinylated IGF2:biotinylated ubiquitin mixture (1:8 proportion) was immobilized on the CM5-streptavidin chip. This interaction was also analysed by immobilizing the Fc-domain 11^AB5 and Fc-domain 11^AB5-RHH (or Fc-domain 11^I1572A as control) by Human Antibody Capture (monoclonal mouse anti-human IgG antibody immobilised on a CM5 chip by amine coupling, GE Healthcare) with and without human IgG1 Fc fragment (Bethyl Laboratories, UK) in the control flow cell. […] T200 BiaEvaluation software (GE Healthcare) was used to fit the resulting curves according to a 1:1 binding model. Steady state affinities were determined using the kinetic data, taking the response average at 5 seconds before injection end and for 5 seconds average. Thermodynamic data was performed across the temperature range of 10° C. to 30° C., van't Hoff and Erying plots generated and ΔH, −TΔS and ΔG values determined as previously described.

[2] = biological target: T1, human IGF2^1-67 (mature insulin-like …); experiment: SPR kinetic, biotin-IGF2 on chip, pH 7.4
Description: as §1

[3] = biological target: T1, human IGF2^1-67 (mature insulin-like …); experiment: SPR steady state, biotin-IGF2 on chip, pH 7.4; remark: listed apart in the source
Excerpt: (§2) Surface plasmon resonance (SPR) binding analysis of recombinant M6P/IGF2R domain 11 mutants interaction with IGF2. Kon indicates association (on) rate; koff, dissociation (off) rate; RU, response units. Binding to IGF2 assessed with BIAcore T200 using purified biotinylated IGF2 and IGF1 on a streptavidin biosensor chip. Recombinant proteins were expressed either in E. coli and/or P. pastoris. All the mutants in the FG and CD loops are on the domain 11^AB5 background for the AB loop unless otherwise stated. All experiments were carried out at 25° C. in HBS-EP buffer (pH 7.4), were repeated 2-5 times on two independent BIAcore chips. nd=not determined. Data for KD expressed as mean of each experiment, and means of kon and koff are shown.
as §1, with “average.” for “average. Thermodynamic data was performed across the temperature range of 10° C. to 30° C., van't Hoff and Erying plots generated and ΔH, −TΔS and ΔG values determined as previously described.”

[4] = biological target: T1, human IGF2^1-67 (mature insulin-like …); experiment: SPR kinetic, biotin-IGF2 on chip, pH 7.4; remark: listed apart in the source
Excerpt: as §2
as §1, with “average.” for “average. Thermodynamic data was performed across the temperature range of 10° C. to 30° C., van't Hoff and Erying plots generated and ΔH, −TΔS and ΔG values determined as previously described.”

T1 sequence (P01344 25-91): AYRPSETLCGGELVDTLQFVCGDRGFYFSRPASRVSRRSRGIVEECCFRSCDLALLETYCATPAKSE

Row | Kd [1] | Kd [2] | koff [2] | kon [2] | Kd [3] | Kd [4] | koff [4] | kon [4] | Binder
1 | 18.7 nM | 17.6 nM | 0.348 s⁻¹ | 1.97e+07 M⁻¹ s⁻¹ | – | – | – | – | domain 11^AB3 P1597H K1631W (receptor, See m5) MKSNEHDDCQVTNPSTGHLFDLSSLSGRAGFTAAYSKSGVVYMSICGENENCPPGVGACFGQTRISVGKANKRLRYVDQVLQLVYKDGSHCPSKSGLSYKSVISFVCRPEAGPTNRPMLISLDWQTCTLFFSWHTPLACEQATECSV
2 | 2.21 nM | 1.94 nM | 0.012 s⁻¹ | 9.54e+06 M⁻¹ s⁻¹ | – | – | – | – | domain 11^AB5 P1597K (receptor, See m5) MKSNEHDDCQVTNPSTGHLFDLSSLSGRAGFTAAYAKGWGVYMSICGENENCPPGVGACFGQTRISVGKANKRLRYVDQVLQLVYKDGSKCPSKSGLSYKSVISFVCRPEAGPTNRPMLISLDKQTCTLFFSWHTPLACEQATECSV
3 | – | – | – | – | > 200 nM | > 200 nM | > 0.2 s⁻¹ | – | domain 11^AB5 S1600Y (receptor, See m5) MKSNEHDDCQVTNPSTGHLFDLSSLSGRAGFTAAYAKGWGVYMSICGENENCPPGVGACFGQTRISVGKANKRLRYVDQVLQLVYKDGSPCPYKSGLSYKSVISFVCRPEAGPTNRPMLISLDKQTCTLFFSWHTPLACEQATECSV
4 | 5.36 nM | 4.13 nM | 0.018 s⁻¹ | 4.72e+06 M⁻¹ s⁻¹ | – | – | – | – | domain 11^AB5 P1597N (receptor, See m5) MKSNEHDDCQVTNPSTGHLFDLSSLSGRAGFTAAYAKGWGVYMSICGENENCPPGVGACFGQTRISVGKANKRLRYVDQVLQLVYKDGSNCPSKSGLSYKSVISFVCRPEAGPTNRPMLISLDKQTCTLFFSWHTPLACEQATECSV
5 | 4.85 nM | 3.86 nM | 0.015 s⁻¹ | 4.18e+06 M⁻¹ s⁻¹ | – | – | – | – | domain 11^AB5 P1597L (receptor, See m5) MKSNEHDDCQVTNPSTGHLFDLSSLSGRAGFTAAYAKGWGVYMSICGENENCPPGVGACFGQTRISVGKANKRLRYVDQVLQLVYKDGSLCPSKSGLSYKSVISFVCRPEAGPTNRPMLISLDKQTCTLFFSWHTPLACEQATECSV
6 | – | – | – | – | 7.93 nM | 4.75 nM | 0.0112 s⁻¹ | 2.38e+06 M⁻¹ s⁻¹ | domain 11^AB5 S1602N (receptor, See m5) MKSNEHDDCQVTNPSTGHLFDLSSLSGRAGFTAAYAKGWGVYMSICGENENCPPGVGACFGQTRISVGKANKRLRYVDQVLQLVYKDGSPCPSKNGLSYKSVISFVCRPEAGPTNRPMLISLDKQTCTLFFSWHTPLACEQATECSV
7 | 2.27 nM | 1.34 nM | 0.0241 s⁻¹ | 2e+07 M⁻¹ s⁻¹ | – | – | – | – | domain 11^AB3 Q1569R P1597K (receptor, See m5) MKSNEHDDCQVTNPSTGHLFDLSSLSGRAGFTAAYSKSGVVYMSICGENENCPPGVGACFGRTRISVGKANKRLRYVDQVLQLVYKDGSKCPSKSGLSYKSVISFVCRPEAGPTNRPMLISLDKQTCTLFFSWHTPLACEQATECSV
8 | 4.9 nM | 4.19 nM | 0.0193 s⁻¹ | 5e+06 M⁻¹ s⁻¹ | – | – | – | – | domain 11^AB5 P1597S (receptor, See m5) MKSNEHDDCQVTNPSTGHLFDLSSLSGRAGFTAAYAKGWGVYMSICGENENCPPGVGACFGQTRISVGKANKRLRYVDQVLQLVYKDGSSCPSKSGLSYKSVISFVCRPEAGPTNRPMLISLDKQTCTLFFSWHTPLACEQATECSV
9 | 7.85 nM | 4.62 nM | 0.0096 s⁻¹ | 2.09e+06 M⁻¹ s⁻¹ | – | – | – | – | domain 11^AB5 P1597K S1602H (receptor, See m5) MKSNEHDDCQVTNPSTGHLFDLSSLSGRAGFTAAYAKGWGVYMSICGENENCPPGVGACFGQTRISVGKANKRLRYVDQVLQLVYKDGSKCPSKHGLSYKSVISFVCRPEAGPTNRPMLISLDKQTCTLFFSWHTPLACEQATECSV
10 | 1.39 nM | 0.79 nM | 0.016 s⁻¹ | 2.01e+07 M⁻¹ s⁻¹ | – | – | – | – | domain 11^AB3 Q1569R P1597K S1602H (receptor, See m5) MKSNEHDDCQVTNPSTGHLFDLSSLSGRAGFTAAYSKSGVVYMSICGENENCPPGVGACFGRTRISVGKANKRLRYVDQVLQLVYKDGSKCPSKHGLSYKSVISFVCRPEAGPTNRPMLISLDKQTCTLFFSWHTPLACEQATECSV
11 | – | – | – | – | 53.5 nM | 26.4 nM | 0.0196 s⁻¹ | 800000 M⁻¹ s⁻¹ | domain 11^AB5 T1633A (receptor, See m5; HI loop mutant) MKSNEHDDCQVTNPSTGHLFDLSSLSGRAGFTAAYAKGWGVYMSICGENENCPPGVGACFGQTRISVGKANKRLRYVDQVLQLVYKDGSPCPSKSGLSYKSVISFVCRPEAGPTNRPMLISLDKQACTLFFSWHTPLACEQATECSV
12 | 4.51 nM | 3.83 nM | 0.0203 s⁻¹ | 6.53e+06 M⁻¹ s⁻¹ | – | – | – | – | domain 11^AB5 P1597Q (receptor, See m5) MKSNEHDDCQVTNPSTGHLFDLSSLSGRAGFTAAYAKGWGVYMSICGENENCPPGVGACFGQTRISVGKANKRLRYVDQVLQLVYKDGSQCPSKSGLSYKSVISFVCRPEAGPTNRPMLISLDKQTCTLFFSWHTPLACEQATECSV
13 | – | – | – | – | > 200 nM | > 200 nM | > 0.2 s⁻¹ | – | domain 11^AB5 S1600V (receptor, See m5) MKSNEHDDCQVTNPSTGHLFDLSSLSGRAGFTAAYAKGWGVYMSICGENENCPPGVGACFGQTRISVGKANKRLRYVDQVLQLVYKDGSPCPVKSGLSYKSVISFVCRPEAGPTNRPMLISLDKQTCTLFFSWHTPLACEQATECSV
14 | 12.4 nM | 9.07 nM | 0.0174 s⁻¹ | 1.9e+06 M⁻¹ s⁻¹ | – | – | – | – | domain 11^AB5 P1597A (receptor, See m5) MKSNEHDDCQVTNPSTGHLFDLSSLSGRAGFTAAYAKGWGVYMSICGENENCPPGVGACFGQTRISVGKANKRLRYVDQVLQLVYKDGSACPSKSGLSYKSVISFVCRPEAGPTNRPMLISLDKQTCTLFFSWHTPLACEQATECSV
15 | 1.62 nM | 0.78 nM | 0.0171 s⁻¹ | 2.08e+07 M⁻¹ s⁻¹ | – | – | – | – | domain 11^AB3 Q1569R P1597K S1602H G1603K (receptor, See m5) MKSNEHDDCQVTNPSTGHLFDLSSLSGRAGFTAAYSKSGVVYMSICGENENCPPGVGACFGRTRISVGKANKRLRYVDQVLQLVYKDGSKCPSKHKLSYKSVISFVCRPEAGPTNRPMLISLDKQTCTLFFSWHTPLACEQATECSV
16 | 1.95 nM | 1.02 nM | 0.0115 s⁻¹ | 1.12e+07 M⁻¹ s⁻¹ | – | – | – | – | domain 11^AB5 Q1569R P1597H K1631W (receptor, See m5) MKSNEHDDCQVTNPSTGHLFDLSSLSGRAGFTAAYAKGWGVYMSICGENENCPPGVGACFGRTRISVGKANKRLRYVDQVLQLVYKDGSHCPSKSGLSYKSVISFVCRPEAGPTNRPMLISLDWQTCTLFFSWHTPLACEQATECSV
17 | – | – | – | – | 19.9 nM | 16.5 nM | 0.025 s⁻¹ | 1.57e+06 M⁻¹ s⁻¹ | domain 11^AB5 S1602A (receptor, See m5) MKSNEHDDCQVTNPSTGHLFDLSSLSGRAGFTAAYAKGWGVYMSICGENENCPPGVGACFGQTRISVGKANKRLRYVDQVLQLVYKDGSPCPSKAGLSYKSVISFVCRPEAGPTNRPMLISLDKQTCTLFFSWHTPLACEQATECSV
18 | 5.33 nM | 3.73 nM | 0.0102 s⁻¹ | 2.74e+06 M⁻¹ s⁻¹ | – | – | – | – | domain 11^AB3 P1597K S1602H (receptor, See m5) MKSNEHDDCQVTNPSTGHLFDLSSLSGRAGFTAAYSKSGVVYMSICGENENCPPGVGACFGQTRISVGKANKRLRYVDQVLQLVYKDGSKCPSKHGLSYKSVISFVCRPEAGPTNRPMLISLDKQTCTLFFSWHTPLACEQATECSV
